Data: paper PMC6804253, “Predicting and Experimentally Validating Hot-Spot Residues at Protein–Protein Interfaces” (ACS Chemical Biology, 2019)

Columns and labels:
[1] = test system: PPIs of the SKEMPI data set (by PDBID); details: single mutation to alanine, complex by PDBID, ref SKEMPI, cited from earlier work; for sk_ddG_kJ: SKEMPI experimental ΔΔG of binding; for sk_ddG_kJ (SKEMPI experimental ΔΔG, mutation to alanine): sheet sortedByGroup, r_group DERKH
[2] = test system: PPIs of the SKEMPI data set (by PDBID); assay: SKEMPI experimental ΔΔG, single mutations to alanine; format: binding; details: for sk_class: class of the SKEMPI experimental ΔΔG, ref SKEMPI; for sk_class (class of the SKEMPI experimental ΔΔG): class by the 4.184 kJ/mol threshold, r_group DERKH

Molecule	sk_ddG_kJ [1] [kJ]	sk_class [2]	sk_ddG_kJ (SKEMPI experimental ΔΔG, mutation to alanine) [1] [kJ]	sk_class (class of the SKEMPI experimental ΔΔG) [2]
1DAN RU144A (protein, UniProt P13726 33-251, looked up, variant R144A, extracellular domain) extracellular domain: SGTTNTVAAYNLTWKSTNFKTILEWEPKPVNQVYTVQISTKSGDWKSKCFYTTDTECDLTDEIVKDVKQTYLARVFSYPAGNVESTGSAGEPLYENSPEFTPYLETNLGQPTIQSFEQVGTKVNVTVEDERTLVRRNNTFLSLADVFGKDLIYTLYYWKSSSSGKKTAKTNTNEFLIDVDKGENYCFSVQAVIPSRTVNRKSTDSPVECMGQEKGEFRE	0.00	Neutral (neutral (little effect) 4.184 kJ/mol < ΔΔG > −4.184 kJ/mol)		
1DAN DU145A (protein, UniProt P13726 33-251, looked up, variant D145A, extracellular domain) extracellular domain: SGTTNTVAAYNLTWKSTNFKTILEWEPKPVNQVYTVQISTKSGDWKSKCFYTTDTECDLTDEIVKDVKQTYLARVFSYPAGNVESTGSAGEPLYENSPEFTPYLETNLGQPTIQSFEQVGTKVNVTVEDERTLVRRNNTFLSLRAVFGKDLIYTLYYWKSSSSGKKTAKTNTNEFLIDVDKGENYCFSVQAVIPSRTVNRKSTDSPVECMGQEKGEFRE	-0.04	Neutral (neutral (little effect) 4.184 kJ/mol < ΔΔG > −4.184 kJ/mol)		
1DAN KU169A (protein, UniProt P13726 33-251, looked up, variant K169A, extracellular domain) extracellular domain: SGTTNTVAAYNLTWKSTNFKTILEWEPKPVNQVYTVQISTKSGDWKSKCFYTTDTECDLTDEIVKDVKQTYLARVFSYPAGNVESTGSAGEPLYENSPEFTPYLETNLGQPTIQSFEQVGTKVNVTVEDERTLVRRNNTFLSLRDVFGKDLIYTLYYWKSSSSGKKTAATNTNEFLIDVDKGENYCFSVQAVIPSRTVNRKSTDSPVECMGQEKGEFRE	0.50	Neutral (neutral (little effect) 4.184 kJ/mol < ΔΔG > −4.184 kJ/mol)		
1DAN RU196A (protein, UniProt P13726 33-251, looked up, variant R196A, extracellular domain) extracellular domain: SGTTNTVAAYNLTWKSTNFKTILEWEPKPVNQVYTVQISTKSGDWKSKCFYTTDTECDLTDEIVKDVKQTYLARVFSYPAGNVESTGSAGEPLYENSPEFTPYLETNLGQPTIQSFEQVGTKVNVTVEDERTLVRRNNTFLSLRDVFGKDLIYTLYYWKSSSSGKKTAKTNTNEFLIDVDKGENYCFSVQAVIPSATVNRKSTDSPVECMGQEKGEFRE	1.92	Neutral (neutral (little effect) 4.184 kJ/mol < ΔΔG > −4.184 kJ/mol)		
1DAN EU208A (protein, UniProt P13726 33-251, looked up, variant E208A, extracellular domain) extracellular domain: SGTTNTVAAYNLTWKSTNFKTILEWEPKPVNQVYTVQISTKSGDWKSKCFYTTDTECDLTDEIVKDVKQTYLARVFSYPAGNVESTGSAGEPLYENSPEFTPYLETNLGQPTIQSFEQVGTKVNVTVEDERTLVRRNNTFLSLRDVFGKDLIYTLYYWKSSSSGKKTAKTNTNEFLIDVDKGENYCFSVQAVIPSRTVNRKSTDSPVACMGQEKGEFRE	0.00	Neutral (neutral (little effect) 4.184 kJ/mol < ΔΔG > −4.184 kJ/mol)		
1DFJ EI202A (protein, UniProt P10775 1-456, looked up, variant E202A) Ribonuclease inhibitor: MNLDIHCEQLSDARWTELLPLLQQYEVVRLDDCGLTEEHCKDIGSALRANPSLTELCLRTNELGDAGVHLVLQGLQSPTCKIQKLSLQNCSLTEAGCGVLPSTLRSLPTLRELHLSDNPLGDAGLRLLCEGLLDPQCHLEKLQLEYCRLTAASCEPLASVLRATRALKELTVSNNDIGEAGARVLGQGLADSACQLETLRLANCGLTPANCKDLCGIVASQASLRELDLGSNGLGDAGIAELCPGLLSPASRLKTLWLWECDITASGCRDLCRVLQAKETLKELSLAGNKLGDEGARLLCESLLQPGCQLESLWVKSCSLTAACCQHVSLMLTQNKHLLELQLSSNKLGDSGIQELCQALSQPGTTLRVLCLGDCEVTNSGCSSLASLLLANRSLRELDLSNNCVGDPGVLQLLGSLEQPGCALEQLVLYDTYWTEEVEDRLQALEGSKPGLRVIS	4.27	Positive (positive (a hot residue) ΔΔG ≥ 4.184 kJ/mol)		
1DFJ EI283A (protein, UniProt P10775 1-456, looked up, variant E283A) Ribonuclease inhibitor: MNLDIHCEQLSDARWTELLPLLQQYEVVRLDDCGLTEEHCKDIGSALRANPSLTELCLRTNELGDAGVHLVLQGLQSPTCKIQKLSLQNCSLTEAGCGVLPSTLRSLPTLRELHLSDNPLGDAGLRLLCEGLLDPQCHLEKLQLEYCRLTAASCEPLASVLRATRALKELTVSNNDIGEAGARVLGQGLADSACQLETLRLENCGLTPANCKDLCGIVASQASLRELDLGSNGLGDAGIAELCPGLLSPASRLKTLWLWECDITASGCRDLCRVLQAKETLKALSLAGNKLGDEGARLLCESLLQPGCQLESLWVKSCSLTAACCQHVSLMLTQNKHLLELQLSSNKLGDSGIQELCQALSQPGTTLRVLCLGDCEVTNSGCSSLASLLLANRSLRELDLSNNCVGDPGVLQLLGSLEQPGCALEQLVLYDTYWTEEVEDRLQALEGSKPGLRVIS	5.52	Positive (positive (a hot residue) ΔΔG ≥ 4.184 kJ/mol)		
1DFJ KI316A (protein, UniProt P10775 1-456, looked up, variant K316A) Ribonuclease inhibitor: MNLDIHCEQLSDARWTELLPLLQQYEVVRLDDCGLTEEHCKDIGSALRANPSLTELCLRTNELGDAGVHLVLQGLQSPTCKIQKLSLQNCSLTEAGCGVLPSTLRSLPTLRELHLSDNPLGDAGLRLLCEGLLDPQCHLEKLQLEYCRLTAASCEPLASVLRATRALKELTVSNNDIGEAGARVLGQGLADSACQLETLRLENCGLTPANCKDLCGIVASQASLRELDLGSNGLGDAGIAELCPGLLSPASRLKTLWLWECDITASGCRDLCRVLQAKETLKELSLAGNKLGDEGARLLCESLLQPGCQLESLWVASCSLTAACCQHVSLMLTQNKHLLELQLSSNKLGDSGIQELCQALSQPGTTLRVLCLGDCEVTNSGCSSLASLLLANRSLRELDLSNNCVGDPGVLQLLGSLEQPGCALEQLVLYDTYWTEEVEDRLQALEGSKPGLRVIS	5.44	Positive (positive (a hot residue) ΔΔG ≥ 4.184 kJ/mol)		
1DFJ EI340A (protein, UniProt P10775 1-456, looked up, variant E340A) Ribonuclease inhibitor: MNLDIHCEQLSDARWTELLPLLQQYEVVRLDDCGLTEEHCKDIGSALRANPSLTELCLRTNELGDAGVHLVLQGLQSPTCKIQKLSLQNCSLTEAGCGVLPSTLRSLPTLRELHLSDNPLGDAGLRLLCEGLLDPQCHLEKLQLEYCRLTAASCEPLASVLRATRALKELTVSNNDIGEAGARVLGQGLADSACQLETLRLENCGLTPANCKDLCGIVASQASLRELDLGSNGLGDAGIAELCPGLLSPASRLKTLWLWECDITASGCRDLCRVLQAKETLKELSLAGNKLGDEGARLLCESLLQPGCQLESLWVKSCSLTAACCQHVSLMLTQNKHLLALQLSSNKLGDSGIQELCQALSQPGTTLRVLCLGDCEVTNSGCSSLASLLLANRSLRELDLSNNCVGDPGVLQLLGSLEQPGCALEQLVLYDTYWTEEVEDRLQALEGSKPGLRVIS	6.57	Positive (positive (a hot residue) ΔΔG ≥ 4.184 kJ/mol)		
1DFJ EI397A (protein, UniProt P10775 1-456, looked up, variant E397A) Ribonuclease inhibitor: MNLDIHCEQLSDARWTELLPLLQQYEVVRLDDCGLTEEHCKDIGSALRANPSLTELCLRTNELGDAGVHLVLQGLQSPTCKIQKLSLQNCSLTEAGCGVLPSTLRSLPTLRELHLSDNPLGDAGLRLLCEGLLDPQCHLEKLQLEYCRLTAASCEPLASVLRATRALKELTVSNNDIGEAGARVLGQGLADSACQLETLRLENCGLTPANCKDLCGIVASQASLRELDLGSNGLGDAGIAELCPGLLSPASRLKTLWLWECDITASGCRDLCRVLQAKETLKELSLAGNKLGDEGARLLCESLLQPGCQLESLWVKSCSLTAACCQHVSLMLTQNKHLLELQLSSNKLGDSGIQELCQALSQPGTTLRVLCLGDCEVTNSGCSSLASLLLANRSLRALDLSNNCVGDPGVLQLLGSLEQPGCALEQLVLYDTYWTEEVEDRLQALEGSKPGLRVIS	5.48	Positive (positive (a hot residue) ΔΔG ≥ 4.184 kJ/mol)		
1DFJ DI431A (protein, UniProt P10775 1-456, looked up, variant D431A) Ribonuclease inhibitor: MNLDIHCEQLSDARWTELLPLLQQYEVVRLDDCGLTEEHCKDIGSALRANPSLTELCLRTNELGDAGVHLVLQGLQSPTCKIQKLSLQNCSLTEAGCGVLPSTLRSLPTLRELHLSDNPLGDAGLRLLCEGLLDPQCHLEKLQLEYCRLTAASCEPLASVLRATRALKELTVSNNDIGEAGARVLGQGLADSACQLETLRLENCGLTPANCKDLCGIVASQASLRELDLGSNGLGDAGIAELCPGLLSPASRLKTLWLWECDITASGCRDLCRVLQAKETLKELSLAGNKLGDEGARLLCESLLQPGCQLESLWVKSCSLTAACCQHVSLMLTQNKHLLELQLSSNKLGDSGIQELCQALSQPGTTLRVLCLGDCEVTNSGCSSLASLLLANRSLRELDLSNNCVGDPGVLQLLGSLEQPGCALEQLVLYATYWTEEVEDRLQALEGSKPGLRVIS	15.31	Positive (positive (a hot residue) ΔΔG ≥ 4.184 kJ/mol)		
1DFJ RI453A (protein, UniProt P10775 1-456, looked up, variant R453A) Ribonuclease inhibitor: MNLDIHCEQLSDARWTELLPLLQQYEVVRLDDCGLTEEHCKDIGSALRANPSLTELCLRTNELGDAGVHLVLQGLQSPTCKIQKLSLQNCSLTEAGCGVLPSTLRSLPTLRELHLSDNPLGDAGLRLLCEGLLDPQCHLEKLQLEYCRLTAASCEPLASVLRATRALKELTVSNNDIGEAGARVLGQGLADSACQLETLRLENCGLTPANCKDLCGIVASQASLRELDLGSNGLGDAGIAELCPGLLSPASRLKTLWLWECDITASGCRDLCRVLQAKETLKELSLAGNKLGDEGARLLCESLLQPGCQLESLWVKSCSLTAACCQHVSLMLTQNKHLLELQLSSNKLGDSGIQELCQALSQPGTTLRVLCLGDCEVTNSGCSSLASLLLANRSLRELDLSNNCVGDPGVLQLLGSLEQPGCALEQLVLYDTYWTEEVEDRLQALEGSKPGLAVIS	3.56	Neutral (neutral (little effect) 4.184 kJ/mol < ΔΔG > −4.184 kJ/mol)		
1EMV DA26A (protein, UniProt P13479 1-86, looked up, variant D26A) Colicin-E9 immunity protein: MELKHSISDYTEAEFLQLVTTICNAATSSEEELVKLVTHFEEMTEHPSGSDLIYYPKEGDDDSPSGIVNTVKQWRAANGKSGFKQG			1.42	Neutral (neutral (little effect) 4.184 kJ/mol < ΔΔG > −4.184 kJ/mol)
1EMV EA31A (protein, UniProt P13479 1-86, looked up, variant E31A) Colicin-E9 immunity protein: MELKHSISDYTEAEFLQLVTTICNADTSSEAELVKLVTHFEEMTEHPSGSDLIYYPKEGDDDSPSGIVNTVKQWRAANGKSGFKQG			1.30	Neutral (neutral (little effect) 4.184 kJ/mol < ΔΔG > −4.184 kJ/mol)
